From patent US20230312684A1 (PINETREE THERAPEUTICS, published 2023)

Legend:
[1] = molecular target: RSV-F (amino acids 1-529), (Extracellular Domain) protein (His tag), ABIN2006856 (respiratory syncytial virus) (UniProt P03420); assay: ELISA, RSV F coated, read on SpectroMax
[2] = molecular target: Influenza A H5N1 virus (IAV H5N1) (target of the Octet assay of Example 18; protein not specified) (Influenza A H5N1 virus); assay: BLI (Octet Red 96), binding affinity to IAV H5N1
[3] = molecular target: RSV-F (amino acids 1-529), (Extracellular Domain) protein (His tag), ABIN2006856 (respiratory syncytial virus) (UniProt P03420); assay: ELISA, RSV F coated, read on Varioskan plate reader
[4] = molecular target: SARS-CoV-2 (antigen of the ELISA of Example 17; protein not specified) (SARS-CoV-2); assay: ELISA by the method of Example 15, SARS-CoV-2 antigen
[5] = molecular target: RSV-F (amino acids 1-529), (Extracellular Domain) protein (His tag), ABIN2006856 (respiratory syncytial virus) (UniProt P03420); assay: ELISA, RSV F coated, anti-human IgG-HRP
[6] = molecular target: Recombinant RSV F protein (Octet assays of Examples 14 and 16) (respiratory syncytial virus, UniProt P03420 26-529)

## SEQ ID NO: 113, b1-Fc (NRP1, WT, single b1) (Fc fusion)
[1]
  EC50: 323 nM
[2]
  Kd: 18.9 nM
[3]
  EC50: 372 nM

## SEQ ID NO: 121, b1b1-b1b1-Fc (NRP1, WT, quadruple b1) (Fc fusion)
[1]
  EC50: 5.9 nM
[2]
  Kd: 0.00782 nM
[3]
  EC50: 5.65 nM

## SEQ ID NO: 122, b1b2-Fc (NRP1, WT, single b1b2) (Fc fusion)
[4]
  EC50: 3.09 nM
[2]
  Kd: 17.5 nM
[5]
  EC50: 23.3 nM

## SEQ ID NO: 138, b1b2-b1b2-Fc (NRP1, WT, double b1b2) (Fc fusion)
[4]
  EC50: 110 nM

## SEQ ID NO: 154, b1b2-Fc (NRP2, WT, single b1b2) (Fc fusion)
[5]
  EC50: 185 nM

## SEQ ID NO: 191, b1b2-Fc (NRP1, WT) (Fc fusion)
[1]
  EC50: 95.7 nM
[3]
  EC50: 91 nM

## SEQ ID NO: 192, b1b2-Fc-ACE2-1 (NRP1 b1b2 at the N-terminus, alpha domain of ACE2 at the C-terminus) (Fc fusion)
[5]
  EC50: 53.9 nM

## SEQ ID NO: 203, b1b2-Fc-ACE2 (NRP1, WT, ACE2 alpha domain) (Fc fusion)
[5]
  EC50: 69.7 nM

## SEQ ID NO: 205, b1b2-Fc-ACE2 (NRP1, WT, repeated ACE2 alpha domain) (Fc fusion)
[5]
  EC50: 39.2 nM

## SEQ ID NO: 206, Nrp1(b1)/Nrp2(b2)-Fc (WT) (Fc fusion)
[5]
  EC50: 22.7 nM

## SEQ ID NO: 207, Nrp2(b1)/Nrp1(b2)-Fc (WT) (Fc fusion)
[5]
  EC50: 17.1 nM

B1: SEQ ID NO: 121, b1b1-b1b1-Fc (NRP1, WT, quadruple b1) (Fc fusion)
chain: EDFKCMEALGMESGEIHSDQITASSQYSTNWSAERSRLNYPENGWTPGEDSYREWIQVDLGLLRFVTAVGTQGAISKETKKKYYVKTYKIDVSSNGEDWITIKEGNKPVLFQGNTNPTDVVVAVFPKPLITRFVRIKPATWETGISMRFEVYGCKITDYPCMEALGMESGEIHSDQITASSQYSTNWSAERSRLNYPENGWTPGEDSYREWIQVDLGLLRFVTAVGTQGAISKETKKKYYVKTYKIDVSSNGEDWITIKEGNKPVLFQGNTNPTDVVVAVFPKPLITRFVRIKPATWETGISMRFEVYGCGGGGSGGGGSCMEALGMESGEIHSDQITASSQYSTNWSAERSRLNYPENGWTPGEDSYREWIQVDLGLLRFVTAVGTQGAISKETKKKYYVKTYKIDVSSNGEDWITIKEGNKPVLFQGNTNPTDVVVAVFPKPLITRFVRIKPATWETGISMRFEVYGCKITDYPCMEALGMESGEIHSDQITASSQYSTNWSAERSRLNYPENGWTPGEDSYREWIQVDLGLLRFVTAVGTQGAISKETKKKYYVKTYKIDVSSNGEDWITIKEGNKPVLFQGNTNPTDVVVAVFPKPLITRFVRIKPATWETGISMRFEVYGCGGGGSGGGGSEPKSCDKTHTCPPCPAPELLGGPSVFLFPPKPKDTLMISRTPEVTCVVVDVSHEDPEVKFNWYVDGVEVHNAKTKPREEQYNSTYRVVSVLAVLHQDWLNGKEYKCKVSNKALPAPIEKTISKAKGQPREPQVYTLPPSRDELTKNQVSLTCLVKGFYPSDIAVAWESNGQPENNYKTTPPVLDSDGSFFLYSKLTVDKSRWQQGNVFSCSVMHEALHAHYTQKSLSLSPGK
[6]
  Kd: < 1 nM

B2: SEQ ID NO: 113, b1-Fc (NRP1, WT, single b1) (Fc fusion)
chain: EDFKCMEALGMESGEIHSDQITASSQYSTNWSAERSRLNYPENGWTPGEDSYREWIQVDLGLLRFVTAVGTQGAISKETKKKYYVKTYKIDVSSNGEDWITIKEGNKPVLFQGNTNPTDVVVAVFPKPLITRFVRIKPATWETGISMRFEVYGCGGGGSGGGGSEPKSCDKTHTCPPCPAPELLGGPSVFLFPPKPKDTLMISRTPEVTCVVVDVSHEDPEVKFNWYVDGVEVHNAKTKPREEQYNSTYRVVSVLAVLHQDWLNGKEYKCKVSNKALPAPIEKTISKAKGQPREPQVYTLPPSRDELTKNQVSLTCLVKGFYPSDIAVAWESNGQPENNYKTTPPVLDSDGSFFLYSKLTVDKSRWQQGNVFSCSVMHEALHAHYTQKSLSLSPGK
[6]
  Kd: < 1 nM
